The values that follow are results of earlier work, collected in patent US20260055200A1, “COMBINATION THERAPIES” (Alligator Bioscience AB, priority 2022, published 2026).

The test system of this series is CD40-mediated immune cell activation. As to conditions: cited from earlier work.

B1: Mitazalimab: agonistic, human monoclonal (IgG1) antibody targeting CD40 (antibody, chains of the INN, looked up, V domains shown)
VH: EVQLLESGGGLVQPGGSLRLSCAASGFTFSTYGMHWVRQAPGKGLEWLSYISGGSSYIFYADSVRGRFTISRDNSENALYLQMNSLRAEDTAVYYCARILRGGSGMDLWGQGTLVTVSS
VL: QSVLTQPPSASGTPGQRVTISCTGSSSNIGAGYNVYWYQQLPGTAPKLLIYGNINRPSGVPDRFSGSKSGTSASLAISGLRSEDEADYYCAAWDKSISGLVFGGGTKLTVL
On to B1, for which the “NK cells and T cells in peripheral blood after infusion” value (all doses except 75 μg/kg) is recorded as “decreased”. Under “all doses tested, dose-dependent recovery”, the “B cells in peripheral blood after IV administration” value is given as “margination of B cells was observed”. In addition, where the note is “in vivo, ip”, the “time of peak of peripheral MCP-1, IP-10 and MIP-1B chemokines post-infusion” value is 1 to 4 h. For the setting “in vivo”, the “CD40 receptor occupancy on B cells” value is listed as “dose dependent”; the “IL-6 levels following infusion” value was “not elevated”; the “duration of CD40 engagement post administration” value was “through Day 8”; the “recovery of NK cell and T cell levels” value is on record as “fully recovered by study Day 8”.
